# Numbering of substitutions follows the chain as printed.
# B1: NRP1-52 (VHH)
# VHH: EVQLVESGGGLVQPGGSLRLSCAASGFTFSWYPMGWFRQAPGKEREFVAAISPSGSTDYADSVKGRFTISADNSKNTAYLQMNSLKPEDTAVYYCARDPNYDFWSGYYSSEHYFDYWGQGTLVTVSS
# B2: NRP1-6 (VHH)
# VHH: EVQLVESGGGLVQPGGSLRLSCAASGLTYTMNWFRQAPGKEREFVAGFAGIGTVTSYADSVKGRFTISADNSKNTAYLQMNSLKPEDTAVYYCSGFDGYSGSDWGQGTLVTVSS
# B3: NRP1-115 (antibody, IgG2, V domains shown)
# VH: EVQLLESGGGLVQPGGSLRLSCAASGFTFGHYEMDWVRQAPGKGLEWVSSIDDRGRYTYYADSVKGRFTISRDNSKNTLYLQMNSLRAEDTAVYYCARSKIAFDYWGQGTLVTVSS
# VL: DIQMTQSPSSLSASVGDRVTITCRASQNIRSYLNWYQQKPGKAPKLLIYGRNKRPSGVPSRFSGSGSGTDFTLTISSLQPEDFATYYCQQSYENPLTFGQGTKVEIK
# B4: NRP1-66 (VHH)
# VHH: EVQLVESGGGLVQPGGSLRLSCAASGRTFRPYRMGWFRQAPGKERELVAAITSGTHKDYADSVKGRFTISADNSKNTAYLQMNSLKPEDTAVYYCAADYSGSYTSLWSRPERLWGQGTLVTVSS
# B5: NRP1-30 (VHH)
# VHH: EVQLVESGGGLVQPGGSLRLSCAASGRTLSSYNMGWFRQAPGKEREFVARIWPGGGTTYADSVKGRFTISADNSKNTAYLQMNSLKPEDTAVYYCARDYFGSGSYYDWGQGTLVTVSS
# B6: NRP1-55 (VHH)
# VHH: EVQLVESGGGLVQPGGSLRLSCAASGFTLDYYVMGWFRQAPGKEREWVAFISGSGSKFYADSVKGRFTISADNSKNTAYLQMNSLKPEDTAVYYCVIQHFWSGYDDDYWGQGTLVTVSS
# B7: NRP1-31 (VHH)
# VHH: EVQLVESGGGLVQPGGSLRLSCAASGLTFRRYDMGWFRQAPGKERELVAIKFSGGSTRYADSVKGRFTISADNSKNTAYLQMNSLKPEDTAVYYCATSSGRVPAALNWGQGTLVTVSS
# B8: NRP1-32 (VHH)
# VHH: B7 VHH with K51I, S70I, S74N, T90N
# B9: NRP1-5 (VHH)
# VHH: EVQLVESGGGLVQPGGSLRLSCAASGNIDRLYVMGWFRQAPGKEREFVAAINWSSGTTVYADSVKGRFTISADNSKNTAYLQMNSLKPEDTAVYYCARSYSSLFRFDYWGQGTLVTVSS
# B10: NRP1-34 (VHH)
# VHH: EVQLVESGGGLVQPGGSLRLSCAASGYTYRKYCMGWFRQAPGKEREWVAAISRSGNLKSYADSVKGRFTISADNSKNTAYLQMNSLKPEDTAVYYCAIKRWPVDTRRRRDMVVGCPGRDEYEWGQGTLVTVSS
# B11: NRP1-54 (VHH)
# VHH: EVQLVESGGGLVQPGGSLRLSCAASGIAFRIRTMGWFRQAPGKEREFVAGISRSGASTAYADSVKGRFTISADNSKNTAYLQMNSLKPEDTAVYYCAARRIVNVEGAYRDWGQGTLVTVSS
# B12: NRP1-69 (VHH)
# VHH: EVQLVESGGGLVQPGGSLRLSCAASGFNFNWYPMGWFRQAPGKEREWVGTINSGGSTSYADSVKGRFTISADNSKNTAYLQMNSLKPEDTAVYYCARLPPRGSYYYYYYGMDVWGQGTLVTVSS
# B13: NRP1-39 (VHH)
# VHH: EVQLVESGGGLVQPGGSLRLSCAASGRTFSGDVMGWFRQAPGKEREFVAAINYSGRSINYADSVKGRFTISADNSKNTAYLQMNSLKPEDTAVYYCARETLWLKRYWGQGTLVTVSS
# B14: NRP1-38 (VHH)
# VHH: EVQLVESGGGLVQPGGSLRLSCAASGFTFGSTTMGWFRQAPGKEREFVATMRWSTGSTVYADSVKGRFTISADNSKNTAYLQMNSLKPEDTAVYYCAVRGDWWAYWTPWGQGTLVTVSS
# B15: NRP1-57 (VHH)
# VHH: EVQLVESGGGLVQPGGSLRLSCAASGFTFSNSGMGWFRQAPGKERELVARITRGGRTYADSVKGRFTISADNSKNTAYLQMNSLKPEDTAVYYCAARRIVNVEGAYRDWGQGTLVTVSS
# B16: NRP1-73 (VHH)
# VHH: EVQLVESGGGLVQPGGSLRLSCAASGFTFSGNWMGWFRQAPGKERELVAVILRGGSTNYADSVKGRFTISADNSKNTAYLQMNSLKPEDTAVYYCAVKIYSGSYSSPPGYNWGQGTLVTVSS
# B17: NRP1-36 (VHH)
# VHH: EVQLVESGGGLVQPGGSLRLSCAASGFPVNRYSMGWFRQAPGKEREFVATITVGGSTYYADSVKGRFTISADNSKNTAYLQMNSLKPEDTAVYYCARQFGAWLGEVVGPMDVWGQGTLVTVSS
# B18: NRP1-68 (VHH)
# VHH: EVQLVESGGGLVQPGGSLRLSCAASGNIFINNAMGWFRQAPGKERELVAAITSSSGRRWYADSVKGRFTISADNSKNTAYLQMNSLKPEDTAVYYCTTDRWYSSNWWGQGTLVTVSS
# B19: NRP1-125 (antibody, IgG2, V domains shown)
# VH: EVQLLESGGGLVQPGGSLRLSCAASGFTFSGYDMQWVRQAPGKGLEWVSSISGYGSTTYYADSVKGRFTISRDNSKNTLYLQMNSLRAEDTAVYYCAKGRRIFDYWGQGTLVTVSS
# VL: DIQMTQSPSSLSASVGDRVTITCRASQTIERRLNWYQQKPGKAPKLLIYRKSNRPSGVPSRFSGSGSGTDFTLTISSLQPEDFATYYCQQNNNWPTTFGQGTKVEIK
# B20: NRP1-25 (VHH)
# VHH: EVQLVESGGGLVQPGGSLRLSCAASGRTSNIYAMGWFRQAPGKERELVAAIRWSGVETYYADSVKGRFTISADNSKNTAYLQMNSLKPEDTAVYYCAADRMYRPVGNQYDWGQGTLVTVSS
# B21: NRP1-64 (VHH)
# VHH: EVQLVESGGGLVQPGGSLRLSCAASGSTFRGAAMGWFRQAPGKEREWVGTISSDGTTKYADSVKGRFTISADNSKNTAYLQMNSLKPEDTAVYYCAADRVLYYSDSRYYTGSNWGQGTLVTVSS
# B22: NRP1-118 (antibody, IgG2, V domains shown)
# VH: EVQLLESGGGLVQPGGSLRLSCAASGFTFNKYPMMWVRQAPGKGLEWVSRISVAGRRTAYADSVKGRFTISRDNSKNTLYLQMNSLRAEDTAVYYCAKWRREGYTGSKFDYWGQGTLVTVSS
# VL: DIQMTQSPSSLSASVGDRVTITCSASQDINKYLNWYQQKPGKAPKLLIYGTSNLESGVPSRFSGSGSGTDFTLTISSLQPEDFATYYCHTWDHHHTTGEHNVFGQGTKVEIK
# B23: NRP1-60 (VHH)
# VHH: EVQLVESGGGLVQPGGSLRLSCAASGNIFINNAMGWFRQAPGKERELVAAISGRSGNTYYADSVKGRFTISADNSKNTAYLQMNSLKPEDTAVYYCAARRIVNVEGAYRDWGQGTLVTVSS
# B24: NRP1-8 (VHH)
# VHH: EVQLVESGGGLVQPGGSLRLSCAASGFPLDDYAMGWFRQAPGKEREFVAAINWSGGSAVYADSVKGRFTISADNSKNTAYLQMNSLKPEDTAVYYCMRGGSYGDYGGYWGQGTLVTVSS
# B25: NRP1-63 (VHH)
# VHH: EVQLVESGGGLVQPGGSLRLSCAASGTFGSYTMGWFRQAPGKERELVATIWWTFDAPYYADSVKGRFTISADNSKNTAYLQMNSLKPEDTAVYYCAAYQAGWGDWGQGTLVTVSS
# B26: NRP1-40 (VHH)
# VHH: EVQLVESGGGLVQPGGSLRLSCAASGSITSFNAMGWFRQAPGKERELVASINWSGARTLYADSVKGRFTISADNSKNTAYLQMNSLKPEDTAVYYCASARYYGSGRHFDYWGQGTLVTVSS
# B27: NRP1-56 (VHH)
# VHH: EVQLVESGGGLVQPGGSLRLSCAASGRTFSSYRMGWFRQAPGKEREFVASIRSSGTTYADSVKGRFTISADNSKNTAYLQMNSLKPEDTAVYYCARDTLGRASSSTDWGQGTLVTVSS
# B28: NRP1-67 (VHH)
# VHH: EVQLVESGGGLVQPGGSLRLSCAASGLYLHSSAMGWFRQAPGKEREFVAAISSSDGSTEYADSVKGRFTISADNSKNTAYLQMNSLKPEDTAVYYCASVRYYDYWSGYYTPTHAGYFESWGQGTLVTVSS
# B29: NRP1-42 (VHH)
# VHH: EVQLVESGGGLVQPGGSLRLSCAASGRTISNYDMGWFRQAPGKEREWVASINWGDGNTYYADSVKGRFTISADNSKNTAYLQMNSLKPEDTAVYYCARAPTYYYDSSGYYYAYWGQGTLVTVSS
# Biological target: T1, neuropilin-1 (NRP1) on HEK293 cells overexpressing NRP1 (UniProt O14786 22-923, limits assumed)
# T1 construct: whole, on cells
# Experiment: flow cytometry, HEK293-NRP1 vs HEK293
row,Binder,100 nM FACS (MFI Ratio)
1,B1,10.7
2,B2,0.5
3,B3,0.8
4,B4,1.1
5,B5,40.2
6,B6,2.7
7,B7,5.7
8,B8,0.3
9,B9,14.8
10,B10,612
11,B11,0.6
12,B12,8.2
13,B13,5.6
14,B14,10.5
15,B15,0.1
16,B16,5.9
17,B17,3
18,B18,4.9
19,B19,0.6
20,B20,8.9
21,B21,0.8
22,B22,4.5
23,B23,1
24,B24,3.1
25,B25,8.3
26,B26,16.7
27,B27,5.4
28,B28,2.1
29,B29,4

# Biological target: neuropilin-1 (NRP1), analyte in SPR (UniProt O14786 22-644, limits assumed)
# Experiment: SPR, Carterra LSA, antibody coupled
# Description: SPR experiments were performed on a Carterra LSA SPR biosensor equipped with a HC30M chip at 25° C. in HBS-TE. Antibodies were diluted to 10 μg/mL and amine-coupled to the sensor chip by EDC/NHS activation, followed by ethanolamine HCl quenching. Increasing concentrations of analyte were flowed over the sensor chip in HBS-TE with 0.5 mg/mL BSA with 5-minute association and 15-minute dissociation. Following each injection cycle the surface was regenerated with 2× 30-second injections of IgG elution buffer (Thermo). Data were analyzed in Carterra's Kinetics Tool software with 1:1 binding model.
Binder,binding result,Kd,koff,kon
B2,no binding,–,–,–
B3,–,87.4 nM,0.00951 s⁻¹,109000 M⁻¹ s⁻¹
B19,no binding,–,–,–
B20,–,831 nM,0.00969 s⁻¹,11700 M⁻¹ s⁻¹
B22,no binding,–,–,–
B24,–,91.1 nM,0.00283 s⁻¹,31100 M⁻¹ s⁻¹

# Source: US20230265198A1 (TWIST BIOSCIENCE, published 2023)
